Test results taken from publication PMC9352680, “A comprehensive thermodynamic model for RNA binding by the Saccharomyces cerevisiae Pumilio protein PUF4”.

Target: T1, PUF4 RNA-binding domain (Saccharomyces cerevisiae, UniProt P25339 537-888)
T1 sequence: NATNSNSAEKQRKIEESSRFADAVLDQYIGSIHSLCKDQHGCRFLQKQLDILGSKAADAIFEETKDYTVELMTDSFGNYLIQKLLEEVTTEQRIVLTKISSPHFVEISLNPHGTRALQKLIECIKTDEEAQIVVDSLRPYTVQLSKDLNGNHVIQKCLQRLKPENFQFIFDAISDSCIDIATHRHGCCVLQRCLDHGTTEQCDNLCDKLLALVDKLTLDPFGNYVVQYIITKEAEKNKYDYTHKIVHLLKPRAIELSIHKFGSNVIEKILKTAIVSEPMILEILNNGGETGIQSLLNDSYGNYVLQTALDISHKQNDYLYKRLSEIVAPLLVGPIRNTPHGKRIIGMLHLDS
Assay: Mg; RNA-MaP; 20 mM Na-HEPES pH 7.4, 30 mM KOAc, 0.75 mM MgCl2, 0.1% Tween-20, 5% glycerol, 0.1 mg/mL BSA, 2 mM DTT; 25 C; 0.0125-409.6 nM protein
Conditions: tags: N-His6-TEV cleaved; C-SNAP kept, Cy3B-labelled; label: tethered on chip by stalled RNA polymerase

UCUCUUUGUAUGUAAGUCUCUU (ssRNA) [Ic_S1_P5E.1_K5.1_C5.1_H5.1_A5.1_[T6G]_[A7T]_F5.1_[T8A]_[T9A]_[A10G]_T5.1]
Kd: 446 nM

UCUCUUUGUACAAACUUCUCUU (ssRNA) [Ic_S1_P5E.1_K5.1_C5.1_H5.1_A5.1_[T5C]_[T6A]_F5.1_[T8A]_[T9C]_[A10T]_T5.1]
Kd: 93.1 nM

UCUCUUUGUAAUAAUGUCUCUU (ssRNA) [Ic_S1_P5E.1_K5.1_C5.1_H5.1_A5.1_[T5A]_F5.1_[T8A]_[A10G]_T5.1]
Kd: 521 nM

UCUCUUUGUAUAGCUCUCUCUU (ssRNA) [Ic_S1_P5E.1_K5.1_C5.1_H5.1_A5.1_[T6A]_[A7G]_F5.1_[T8C]_[A10C]_T5.1]
Kd: 111 nM

UCUCUUUGUACUGUGUUCUCUU (ssRNA) [Ic_S1_P5E.1_K5.1_C5.1_H5.1_A5.1_[T5C]_[A7G]_F5.1_[T9G]_[A10T]_T5.1]
Kd: 27.2 nM

UCUCUUUGUACGGCUGUCUCUU (ssRNA) [Ic_S1_P5E.1_K5.1_C5.1_H5.1_A5.1_[T5C]_[T6G]_[A7G]_F5.1_[T8C]_[A10G]_T5.1]
Kd: 2200 nM

UCUCUUUGUACAUUACUCUCUU (ssRNA) [Ic_S1_P5E.1_K5.1_C5.1_H5.1_A5.1_[T5C]_[T6A]_[A7T]_F5.1_[T9A]_[A10C]_T5.1]
Kd: 0.694 nM

UCUCUUUGUAAUCAGCUCUCUU (ssRNA) [Ic_S1_P5E.1_K5.1_C5.1_H5.1_A5.1_[T5A]_[A7C]_F5.1_[T8A]_[T9G]_[A10C]_T5.1]
Kd: 1300 nM

UCUCUUUGUAUAAAAAUCUCUU (ssRNA) [Ic_S1_P5E.1_K5.1_C5.1_H5.1_A5.1_[T6A]_F5.1_[T8A]_[T9A]_T5.1]
Kd: 42 nM

UCUCUUUGUAACACCUUCUCUU (ssRNA) [Ic_S1_P5E.1_K5.1_C5.1_H5.1_A5.1_[T5A]_[T6C]_F5.1_[T8C]_[T9C]_[A10T]_T5.1]
Kd: 621 nM

UCUCUUUGUAACUUGUUCUCUU (ssRNA) [Ic_S1_P5E.1_K5.1_C5.1_H5.1_A5.1_[T5A]_[T6C]_[A7T]_F5.1_[T9G]_[A10T]_T5.1]
Kd: 49.4 nM

UCUCUUUGUAAUGCUUUCUCUU (ssRNA) [Ic_S1_P5E.1_K5.1_C5.1_H5.1_A5.1_[T5A]_[A7G]_F5.1_[T8C]_[A10T]_T5.1]
Kd: 181 nM

UCUCUUUGUAUCAUGCUCUCUU (ssRNA) [Ic_S1_P5E.1_K5.1_C5.1_H5.1_A5.1_[T6C]_F5.1_[T9G]_[A10C]_T5.1]
Kd: 11.3 nM

UCUCUUUGUAAAUCAGUCUCUU (ssRNA) [Ic_S1_P5E.1_K5.1_C5.1_H5.1_A5.1_[T5A]_[T6A]_[A7T]_F5.1_[T8C]_[T9A]_[A10G]_T5.1]
Kd: 26.1 nM

UCUCUUUGUACCAUCCUCUCUU (ssRNA) [Ic_S1_P5E.1_K5.1_C5.1_H5.1_A5.1_[T5C]_[T6C]_F5.1_[T9C]_[A10C]_T5.1]
Kd: 12.5 nM

UCUCUUUGUAUCUAUAUCUCUU (ssRNA) [Ic_S1_P5E.1_K5.1_C5.1_H5.1_A5.1_[T6C]_[A7T]_F5.1_[T8A]_T5.1]
Kd: 11.5 nM

UCUCUUUGUAAACCGCUCUCUU (ssRNA) [Ic_S1_P5E.1_K5.1_C5.1_H5.1_A5.1_[T5A]_[T6A]_[A7C]_F5.1_[T8C]_[T9G]_[A10C]_T5.1]
Kd: 625 nM

UCUCUUUGUACUUACGUCUCUU (ssRNA) [Ic_S1_P5E.1_K5.1_C5.1_H5.1_A5.1_[T5C]_[A7T]_F5.1_[T8A]_[T9C]_[A10G]_T5.1]
Kd: 504 nM

UCUCUUUGUACAAUCUUCUCUU (ssRNA) [Ic_S1_P5E.1_K5.1_C5.1_H5.1_A5.1_[T5C]_[T6A]_F5.1_[T9C]_[A10T]_T5.1]
Kd: 25.9 nM

UCUCUUUGUAAUUCCUUCUCUU (ssRNA) [Ic_S1_P5E.1_K5.1_C5.1_H5.1_A5.1_[T5A]_[A7T]_F5.1_[T8C]_[T9C]_[A10T]_T5.1]
Kd: 448 nM

UCUCUUUGUAGCAUACUCUCUU (ssRNA) [Ic_S1_P5E.1_K5.1_C5.1_H5.1_A5.1_[T5G]_[T6C]_F5.1_[T9A]_[A10C]_T5.1]
Kd: 8.64 nM

UCUCUUUGUACCCCUCUCUCUU (ssRNA) [Ic_S1_P5E.1_K5.1_C5.1_H5.1_A5.1_[T5C]_[T6C]_[A7C]_F5.1_[T8C]_[A10C]_T5.1]
Kd: 1240 nM

UCUCUUUGUACUGCACUCUCUU (ssRNA) [Ic_S1_P5E.1_K5.1_C5.1_H5.1_A5.1_[T5C]_[A7G]_F5.1_[T8C]_[T9A]_[A10C]_T5.1]
Kd: 724 nM

UCUCUUUUUGUAUAUCUCUU (ssRNA) [Ib_S1_P3E.1_K3.1_C3.1_H3.1_[G2T]_[A4G]_A3.1_F3.1_T3.1]
Kd: 25.1 nM

UCUCUUUGUAUCUCUGUCUCUU (ssRNA) [Ic_S1_P5E.1_K5.1_C5.1_H5.1_A5.1_[T6C]_[A7T]_F5.1_[T8C]_[A10G]_T5.1]
Kd: 58.6 nM

UCUCUUUGUACCCUUUUCUCUU (ssRNA) [Ic_S1_P5E.1_K5.1_C5.1_H5.1_A5.1_[T5C]_[T6C]_[A7C]_F5.1_[A10T]_T5.1]
Kd: 35.9 nM

UCUCUUUGUACCCCAAUCUCUU (ssRNA) [Ic_S1_P5E.1_K5.1_C5.1_H5.1_A5.1_[T5C]_[T6C]_[A7C]_F5.1_[T8C]_[T9A]_T5.1]
Kd: 1350 nM

UCUCUUUGUAUGUGCCUCUCUU (ssRNA) [Ic_S1_P5E.1_K5.1_C5.1_H5.1_A5.1_[T6G]_[A7T]_F5.1_[T8G]_[T9C]_[A10C]_T5.1]
Kd: 838 nM

UCUCUUUGUACAUCCAUCUCUU (ssRNA) [Ic_S1_P5E.1_K5.1_C5.1_H5.1_A5.1_[T5C]_[T6A]_[A7T]_F5.1_[T8C]_[T9C]_T5.1]
Kd: 29.4 nM

UCUCUUUGUAAUUUCGUCUCUU (ssRNA) [Ic_S1_P5E.1_K5.1_C5.1_H5.1_A5.1_[T5A]_[A7T]_F5.1_[T9C]_[A10G]_T5.1]
Kd: 92.7 nM

UCUCUUUGUACCACCGUCUCUU (ssRNA) [Ic_S1_P5E.1_K5.1_C5.1_H5.1_A5.1_[T5C]_[T6C]_F5.1_[T8C]_[T9C]_[A10G]_T5.1]
Kd: 821 nM

UCUCUUUGUAUACGUUUCUCUU (ssRNA) [Ic_S1_P5E.1_K5.1_C5.1_H5.1_A5.1_[T6A]_[A7C]_F5.1_[T8G]_[A10T]_T5.1]
Kd: 43.4 nM

UCUCUUUCUCUAUAUCUCUU (ssRNA) [Ib_S1_P3E.1_K3.1_C3.1_H3.1_[G2C]_[A4C]_A3.1_F3.1_T3.1]
Kd: > 2300 nM

UCUCUUUUUUUAUAUCUCUU (ssRNA) [Ib_S1_P3E.1_K3.1_C3.1_H3.1_[G2T]_[A4T]_A3.1_F3.1_T3.1]
Kd: > 2300 nM

UCUCUUUGUACCAAUCUCUCUU (ssRNA) [Ic_S1_P5E.1_K5.1_C5.1_H5.1_A5.1_[T5C]_[T6C]_F5.1_[T8A]_[A10C]_T5.1]
Kd: 119 nM

UCUCUUUGUAAUUUGCUCUCUU (ssRNA) [Ic_S1_P5E.1_K5.1_C5.1_H5.1_A5.1_[T5A]_[A7T]_F5.1_[T9G]_[A10C]_T5.1]
Kd: 81.9 nM

UCUCUUUGUAAGUUAGUCUCUU (ssRNA) [Ic_S1_P5E.1_K5.1_C5.1_H5.1_A5.1_[T5A]_[T6G]_[A7T]_F5.1_[T9A]_[A10G]_T5.1]
Kd: 17.2 nM

UCUCUUUGUAUUCGUUUCUCUU (ssRNA) [Ic_S1_P5E.1_K5.1_C5.1_H5.1_A5.1_[A7C]_F5.1_[T8G]_[A10T]_T5.1]
Kd: 378 nM

UCUCUUUCUUUAUAUCUCUU (ssRNA) [Ib_S1_P3E.1_K3.1_C3.1_H3.1_[G2C]_[A4T]_A3.1_F3.1_T3.1]
Kd: > 2300 nM

UCUCUUUGUACGAAUGUCUCUU (ssRNA) [Ic_S1_P5E.1_K5.1_C5.1_H5.1_A5.1_[T5C]_[T6G]_F5.1_[T8A]_[A10G]_T5.1]
Kd: 819 nM

UCUCUUUGUAUCGAUCUCUCUU (ssRNA) [Ic_S1_P5E.1_K5.1_C5.1_H5.1_A5.1_[T6C]_[A7G]_F5.1_[T8A]_[A10C]_T5.1]
Kd: 1870 nM

UCUCUUUGUAUACGACUCUCUU (ssRNA) [Ic_S1_P5E.1_K5.1_C5.1_H5.1_A5.1_[T6A]_[A7C]_F5.1_[T8G]_[T9A]_[A10C]_T5.1]
Kd: 49 nM

UCUCUUUGUAAGUUAAUCUCUU (ssRNA) [Ic_S1_P5E.1_K5.1_C5.1_H5.1_A5.1_[T5A]_[T6G]_[A7T]_F5.1_[T9A]_T5.1]
Kd: 66.4 nM

UCUCUUUCUGUAUAUCUCUU (ssRNA) [Ib_S1_P3E.1_K3.1_C3.1_H3.1_[G2C]_[A4G]_A3.1_F3.1_T3.1]
Kd: 27.6 nM

UCUCUUUGUAAACAACUCUCUU (ssRNA) [Ic_S1_P5E.1_K5.1_C5.1_H5.1_A5.1_[T5A]_[T6A]_[A7C]_F5.1_[T8A]_[T9A]_[A10C]_T5.1]
Kd: 88.4 nM

UCUCUUUGUAUACCCGUCUCUU (ssRNA) [Ic_S1_P5E.1_K5.1_C5.1_H5.1_A5.1_[T6A]_[A7C]_F5.1_[T8C]_[T9C]_[A10G]_T5.1]
Kd: 675 nM

UCUCUUUGUAAUAACUUCUCUU (ssRNA) [Ic_S1_P5E.1_K5.1_C5.1_H5.1_A5.1_[T5A]_F5.1_[T8A]_[T9C]_[A10T]_T5.1]
Kd: 1100 nM

UCUCUUUGUAUGUCCCUCUCUU (ssRNA) [Ic_S1_P5E.1_K5.1_C5.1_H5.1_A5.1_[T6G]_[A7T]_F5.1_[T8C]_[T9C]_[A10C]_T5.1]
Kd: 125 nM

UCUCUUUGUAUGGUAUUCUCUU (ssRNA) [Ic_S1_P5E.1_K5.1_C5.1_H5.1_A5.1_[T6G]_[A7G]_F5.1_[T9A]_[A10T]_T5.1]
Kd: 13.3 nM

UCUCUUUGUAUAUAAUCUCUU (ssRNA) [Ia_S1_P4E.1_K4.1_C4.1_H4.1_A4.1_F4.1_[T8A]_T4.1]
Kd: 4.12 nM

UCUCUUUGUAAUGUUUUCUCUU (ssRNA) [Ic_S1_P5E.1_K5.1_C5.1_H5.1_A5.1_[T5A]_[A7G]_F5.1_[A10T]_T5.1]
Kd: 118 nM

UCUCUUUGUAUCGCCAUCUCUU (ssRNA) [Ic_S1_P5E.1_K5.1_C5.1_H5.1_A5.1_[T6C]_[A7G]_F5.1_[T8C]_[T9C]_T5.1]
Kd: 919 nM

UCUCUUUGUAUAUUCCUCUCUU (ssRNA) [Ic_S1_P5E.1_K5.1_C5.1_H5.1_A5.1_[T6A]_[A7T]_F5.1_[T9C]_[A10C]_T5.1]
Kd: 5.93 nM

UCUCUUUGUAGUUCCCUCUCUU (ssRNA) [Ic_S1_P5E.1_K5.1_C5.1_H5.1_A5.1_[T5G]_[A7T]_F5.1_[T8C]_[T9C]_[A10C]_T5.1]
Kd: 1650 nM

UCUCUUUGUAUCUUGAUCUCUU (ssRNA) [Ic_S1_P5E.1_K5.1_C5.1_H5.1_A5.1_[T6C]_[A7T]_F5.1_[T9G]_T5.1]
Kd: 72.1 nM

UCUCUUUGUAAUACCUUCUCUU (ssRNA) [Ic_S1_P5E.1_K5.1_C5.1_H5.1_A5.1_[T5A]_F5.1_[T8C]_[T9C]_[A10T]_T5.1]
Kd: 690 nM

UCUCUUUGUACGUGUUUCUCUU (ssRNA) [Ic_S1_P5E.1_K5.1_C5.1_H5.1_A5.1_[T5C]_[T6G]_[A7T]_F5.1_[T8G]_[A10T]_T5.1]
Kd: 98.8 nM

UCUCUUUGUAGCUUGAUCUCUU (ssRNA) [Ic_S1_P5E.1_K5.1_C5.1_H5.1_A5.1_[T5G]_[T6C]_[A7T]_F5.1_[T9G]_T5.1]
Kd: 651 nM

UCUCUUUGUACGAAUUUCUCUU (ssRNA) [Ic_S1_P5E.1_K5.1_C5.1_H5.1_A5.1_[T5C]_[T6G]_F5.1_[T8A]_[A10T]_T5.1]
Kd: 693 nM
